# In publication PMC11547827 (2024):
# Bridges are numbered along the chain shown (N, C = ends). Where no end group is shown, it is not given here.
# Target: T1, TNFR1 (Homo sapiens, UniProt P19438)
# T1 chain: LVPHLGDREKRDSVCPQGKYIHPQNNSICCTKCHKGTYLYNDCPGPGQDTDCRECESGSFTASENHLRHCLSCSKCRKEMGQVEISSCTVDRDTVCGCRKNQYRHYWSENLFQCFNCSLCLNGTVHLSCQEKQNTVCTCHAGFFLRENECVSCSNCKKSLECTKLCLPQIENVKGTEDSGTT
# Test: ELISA
row,Binder,Kd
1,YCWSQYLCY (disulfide 2-8 (inferred)) [WP9QY],1150 nM
2,CTISRIAVSYQTKVNRLSC (disulfide 1-19) [L16R (α_CC8 L16R cyclic peptide)],177 nM
